Results published in patent publication US20170101470A1 (PROTHENA BIOSCIENCES, published 2017).

T1: human MCAM-Fc protein (extracellular domain of human MCAM fused to human IgG) (human, UniProt P43121 24-559)
T1 construct: also called hMCAM-Fc; MCAMhFc
T1 chain: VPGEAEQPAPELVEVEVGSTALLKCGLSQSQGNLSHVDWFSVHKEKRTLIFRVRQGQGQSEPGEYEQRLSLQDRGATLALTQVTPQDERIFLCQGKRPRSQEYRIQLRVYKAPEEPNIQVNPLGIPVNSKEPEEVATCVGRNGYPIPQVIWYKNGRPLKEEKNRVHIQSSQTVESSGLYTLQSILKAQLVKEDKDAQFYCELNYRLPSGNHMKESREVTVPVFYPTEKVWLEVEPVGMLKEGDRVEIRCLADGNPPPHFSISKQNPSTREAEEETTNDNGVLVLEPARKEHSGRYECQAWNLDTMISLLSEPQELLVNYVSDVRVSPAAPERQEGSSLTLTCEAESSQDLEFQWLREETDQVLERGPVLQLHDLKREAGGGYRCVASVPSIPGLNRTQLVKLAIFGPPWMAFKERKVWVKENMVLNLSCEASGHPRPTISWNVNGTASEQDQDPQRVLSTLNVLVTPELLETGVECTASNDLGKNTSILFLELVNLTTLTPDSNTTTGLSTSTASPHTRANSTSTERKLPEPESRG

T2: human MCAM domain 1 hFc construct (human, UniProt P43121 19-129)
T2 construct: One of the 'various MCAMhFc domains' loaded on the ForteBio sensors; also called MCAMhFc domain 1
T2 sequence: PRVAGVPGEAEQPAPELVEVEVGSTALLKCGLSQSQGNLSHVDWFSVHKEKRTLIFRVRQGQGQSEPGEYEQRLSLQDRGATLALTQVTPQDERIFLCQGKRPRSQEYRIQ

T3: human MCAM domain 2 hFc construct (human, UniProt P43121 139-242)
T3 construct: One of the 'various MCAMhFc domains' loaded on the ForteBio sensors; also called MCAMhFc domain 2
T3 sequence: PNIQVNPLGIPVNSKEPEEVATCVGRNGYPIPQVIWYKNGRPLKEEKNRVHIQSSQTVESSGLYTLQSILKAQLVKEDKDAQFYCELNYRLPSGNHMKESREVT

T4: human MCAM domains 1 and 2 hFc construct (human, UniProt P43121 19-242)
T4 construct: One of the 'various MCAMhFc domains' loaded on the ForteBio sensors
T4 sequence: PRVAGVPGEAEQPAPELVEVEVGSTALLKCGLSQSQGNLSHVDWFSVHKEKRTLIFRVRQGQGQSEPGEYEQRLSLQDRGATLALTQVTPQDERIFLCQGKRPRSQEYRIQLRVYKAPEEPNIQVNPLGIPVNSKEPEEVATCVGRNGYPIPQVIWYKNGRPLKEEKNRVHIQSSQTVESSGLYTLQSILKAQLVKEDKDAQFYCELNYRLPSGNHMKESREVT

T5: human MCAM domain 3 hFc construct (human, UniProt P43121 244-321)
T5 construct: One of the 'various MCAMhFc domains' loaded on the ForteBio sensors; also called MCAMhFc domain 3
T5 sequence: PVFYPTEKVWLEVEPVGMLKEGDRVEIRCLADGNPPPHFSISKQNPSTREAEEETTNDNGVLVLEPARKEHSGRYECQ

T6: human MCAM expressed on CHO cells (full length human MCAM gene) (human, UniProt P43121 24-646)
T6 construct: also called hMCAM expressing CHO cells; CD146
T6 chain: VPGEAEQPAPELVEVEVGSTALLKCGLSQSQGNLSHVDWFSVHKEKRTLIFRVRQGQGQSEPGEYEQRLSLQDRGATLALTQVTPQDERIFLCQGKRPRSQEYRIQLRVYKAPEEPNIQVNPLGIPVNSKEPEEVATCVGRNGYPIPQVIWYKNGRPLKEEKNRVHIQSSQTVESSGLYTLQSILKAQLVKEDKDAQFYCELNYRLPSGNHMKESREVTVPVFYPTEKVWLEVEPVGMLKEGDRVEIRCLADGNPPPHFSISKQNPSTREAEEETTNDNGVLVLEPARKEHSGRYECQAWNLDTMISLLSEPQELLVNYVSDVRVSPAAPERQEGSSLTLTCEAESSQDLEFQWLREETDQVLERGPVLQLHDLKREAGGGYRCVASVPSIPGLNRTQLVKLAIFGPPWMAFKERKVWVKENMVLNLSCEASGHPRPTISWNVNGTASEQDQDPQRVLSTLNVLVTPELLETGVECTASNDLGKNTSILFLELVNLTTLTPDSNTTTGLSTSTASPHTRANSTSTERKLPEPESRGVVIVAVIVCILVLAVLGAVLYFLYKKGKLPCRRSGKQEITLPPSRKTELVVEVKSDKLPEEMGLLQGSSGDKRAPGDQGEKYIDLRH

T7: recombinant hMCAM-His (human, UniProt P43121 24-559)
T7 chain: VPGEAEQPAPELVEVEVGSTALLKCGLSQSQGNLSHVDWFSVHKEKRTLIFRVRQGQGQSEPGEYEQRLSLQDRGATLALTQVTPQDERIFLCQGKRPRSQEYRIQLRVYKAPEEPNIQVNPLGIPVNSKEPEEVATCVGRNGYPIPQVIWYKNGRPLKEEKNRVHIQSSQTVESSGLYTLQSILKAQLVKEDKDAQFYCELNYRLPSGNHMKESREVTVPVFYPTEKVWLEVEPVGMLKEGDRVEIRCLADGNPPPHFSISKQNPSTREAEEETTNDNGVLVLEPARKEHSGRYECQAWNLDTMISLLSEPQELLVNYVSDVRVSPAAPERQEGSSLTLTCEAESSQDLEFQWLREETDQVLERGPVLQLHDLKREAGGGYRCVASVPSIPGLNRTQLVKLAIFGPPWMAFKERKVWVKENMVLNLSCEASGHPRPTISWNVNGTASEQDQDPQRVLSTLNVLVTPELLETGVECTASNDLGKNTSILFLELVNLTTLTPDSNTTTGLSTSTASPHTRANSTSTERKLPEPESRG


Tests used:
[1] = biological target: T1, human MCAM-Fc protein (extracellular …); assay: summary sentence of Example 3 (ForteBio, MCAMhFc)
Description: (§1) The following protocol was used: ForteBio anti-human IgG Fc biosensors were used to immobilize various MCAMhFc domains including full length MCAMhFc protein on to biosensor surface. […] After loading these samples into a black 96 well plate, the Octet Red was programmed as follows: 60 seconds for baseline #1; 180 seconds for loading various domains; 60 seconds for baseline #2; 180 seconds for association of antibody to domain; and 240 seconds for dissociation of antibody from domain.
(§2) Reagents and Supplies Used: [0358] 1. MCAMhFc final concentration @ 5 ug/ml [0359] […] 3. ForteBio anti-human IgG Fc Capture (AHC) biosensors for kinetics experiments, cat#18-5060 [0361] 4. Block 96 well plate from Greiner Bio-one, cat#655209 [0362] 5. ForteBio Octet Red machine [0363] 6. Fresh tissue culture medium, DMEM with 20% FCS, was used as buffer for dilution

[2] = biological target: T2, human MCAM domain 1 hFc construct; assay: ForteBio Octet Red, MCAMhFc domains on anti-human IgG Fc sensors
Description: as §1, §2

[3] = biological target: T3, human MCAM domain 2 hFc construct; assay: as above
Description: as §1, §2

[4] = biological target: T4, human MCAM domains 1 and 2 hFc construct; assay: as above
Description: as §1, §2

[5] = biological target: T5, human MCAM domain 3 hFc construct; assay: ForteBio Octet Red, MCAMhFc domains on anti-human IgG Fc sensors, antibody at 5 ug/ml
Description: as §1, §2

[6] = biological target: T6, human MCAM expressed on CHO cells (full …); assay: flow cytometry: blocking of recombinant human laminin 411 (20 ug/ml) binding to CHO cells expressing human MCAM
Description: The 87 independent mouse fusion clones and 26 independent rat fusion clones described in Example 1 above as being capable of (i) binding to human MCAM, and (ii) blocking the interaction between human MCAM and the α-4 chain of laminin were further characterized as follows. First, IC50 quantitation for the ability of the monoclonal antibody to block the binding of human MCAM to the α-4 chain of laminin was determined as follows. CHO cells expressing human MCAM were incubated with an anti-human MCAM antibody (at various concentrations) for 30 minutes at 4 degrees Celsius. […] Unbound laminin was then washed away, and the laminin bound to the surface of the cells was detected with fluorescently labeled anti-laminin antibodies. After washing, the amount of laminin bound to the surface was detected by flow cytometry, and IC50s were calculated based on the mean fluorescent intensity.
Amino acid and nucleic acid sequences of the heavy and light chains of these antibodies, and their hypervariable regions, are provided in SEQ ID NOs:29-92. […] As such, each of these specific monoclonal antibodies was very capable of binding to human MCAM and inhibiting the interaction of cell-expressed human MCAM with its α-4 laminin binding ligand.

recombinant hMCAM-His [7] = biological target: T7, recombinant hMCAM-His; assay: competitive ELISA on coated hMCAM-His, competitor biotinylated rodent or chimeric 2120; IC50 relative to rodent 2120
Description: The apparent affinities of the humanized antibodies were compared to the parental rodent or chimeric antibody in a competitive ELISA according to the following protocol: ELISA plates were coated with recombinant hMCAM-His, and blocked with casein buffer to prevent non-specific binding. Biotinylated rodent or chimeric antibody was added at a subsaturating concentration, in the presence or absence of 3× increasing concentrations of unlabeled competitor (humanized antibody, rodent, or chimeric). After washing to remove unbound antibody, streptavidin HRP was added to allow detection of the biotinylated antibody. The ELISA was developed with TMB substrate and the OD450 was measured. The IC50 of the unlabeled competitor was determined using the GraphPad Prism5 software.

[8] = biological target: T6, human MCAM expressed on CHO cells (full …); assay: laminin/FACS assay: blocking of recombinant laminin 411 binding to hMCAM expressing CHO cells, relative to rodent 2120, Expt#1
Description: (§3) Following incubation for 30-45 minutes, the cells were washed and anti-laminin conjugated to AF650 (NovusBio) was added to detect the bound laminin. The cells were run on a flow cytometer to measure the laminin binding signal.

[9] = biological target: T6, human MCAM expressed on CHO cells (full …); assay: laminin/FACS assay: blocking of recombinant laminin 411 binding to hMCAM expressing CHO cells, relative to rodent 2120, Expt#2
Description: as §3

recombinant hMCAM-His [10] = biological target: T7, recombinant hMCAM-His; assay: ForteBio Octet Red, antibody on anti-human Fc sensors, hMCAMHis analyte, 1:1 fit; affinity relative to rodent 2120, first Forte column
Description: The affinities were measured using the ForteBio Octet Red. Anti-human Fc sensors were used to capture the humanized antibodies, and several concentrations of hMCAMHis analyte were used to determine the affinity using a 1:1 fitting model.

binding result [1]	binding result [2]	binding result [3]	binding result [4]	binding result [5]	IC50 [6] [µg/mL]	Fold over rodent (ELISA) (recombinant hMCAM-His [7]) [fold]	Fold over rodent (Blocking) [8] [fold]	Fold over rodent (Blocking) [9] [fold]	Fold over rodent (Forte) (recombinant hMCAM-His [10]) [fold]	Binder
binds	no binding (tested: 5 ug/ml)	no binding (tested: 5 ug/ml)	no binding (tested: 5 ug/ml)	binds	0.431	–	–	–	–	mouse anti-human MCAM monoclonal antibody clone 1414.1.2 (antibody, V domains shown, Mouse hybridoma antibody) VH: EIQLQQTGPELVKPGASVKISCKASGYSFTDYIMLWVKQSHGKSLEWIGNINPYSGSSGYNLKFKGKATLTVDKSSSTAYMQLNSLTSEDSAVYYCARGKDFAMDYWGQGTSVTVSS VL: DIVMSQSPSSLAVSAGEKVTMSCKSSQSLLNSSTRKNFLAWYQQKPGQSPKLLIYWASTRESGVPDRFTGSGSGTDFTLTISSVQAEDLAVYYCKQSYNRYTFGGGTKLEIK
binds	no binding (tested: 5 ug/ml)	no binding (tested: 5 ug/ml)	no binding (tested: 5 ug/ml)	binds	0.469	–	–	–	–	mouse anti-human MCAM monoclonal antibody clone 1174.1.3 (antibody, V domains shown, Mouse hybridoma antibody) VH: QIQLVQSGPELKKPGETVKISCKASGYTFTNYGMNWVKQAPGKGLKWMGWINTYTGEPTYADDFKGRFALSLETSASTAYLQINNLKNEDMATYFCARYRYNKYERAMDYWGQGTSVTVSS VL: DIVLTQSPASLAVSLGQRATISCRASKSVSTSGYSYMYWYQQKPGQPPKLLIYLASNLESGVPARFSGSGSGTDFTLNIHPVEEEDAATYYCQHSRELPFTFGSGTKLEIK
–	–	–	–	–	–	3.1	2	3.5	8.8	humanized anti-MCAM antibody h2120_VH1 + h2120_VL1 (antibody, V domains shown, Human IgG1 / human kappa; also called h2120VH1VL1; Standard VH + standard VL) VH: QVTLKESGPVLVKPTETLTLTCTVSGFSLTSNGVSWVRQPPGKALEWIAAISSGGTTYYNSAFKSRLTISRDTSKSQVVLTMTNMDPVDTATYYCARRYGYGWYFDFWGQGTLVTVSS VL: DIQMTQSPSSLSASVGDRVTITCKASQNIYNSLAWYQQKPGKAPKVLIFNANSLQTGIPSRFSGSGSGTDFTLTISSLQPEDFATYYCQQFYSGYTFGQGTKLEIK
–	–	–	–	–	–	5	3.8	5.6	17.4	humanized anti-MCAM antibody h2120_VH4 + h2120_VL3 (antibody, V domains shown, Human IgG1 / human kappa; also called h2120VH4VL3; N-Q deamidate VH + conservative VL) VH: QVTLKESGPVLVKPTETLTLTCTVSGFSLTSQGVSWVRQPPGKALEWIAAISSGGTTYYNSAFKSRLTISRDTSKSQVVLTMTNMDPVDTATYYCARRYGYGWYFDFWGQGTLVTVSS VL: DIQMTQSPSSLSASVGDRVTINCKASQNIYNSLAWYQQKPGKAPKVLIFNANSLQTGIPSRFSGSGSGTDFTLTISSLQPEDFATYYCQQFYSGYTFGQGTKLEIK
–	–	–	–	–	–	3.1	4.6	12.6	10.8	humanized anti-MCAM antibody h2120_VH1 + h2120_VL2 (antibody, V domains shown, Human IgG1 / human kappa; also called h2120VH1VL2; Standard VH + aggressive VL) VH: QVTLKESGPVLVKPTETLTLTCTVSGFSLTSNGVSWVRQPPGKALEWIAAISSGGTTYYNSAFKSRLTISRDTSKSQVVLTMTNMDPVDTATYYCARRYGYGWYFDFWGQGTLVTVSS VL: DIQMTQSPSSLSASVGDRVTITCKASQNIYNSLAWYQQKPGKAPKVLIFNANSLQTGVPSRFSGSGSGTDFTLTISSLQPEDFATYYCQQFYSGYTFGQGTKLEIK
–	no binding (tested: 5 ug/ml)	–	–	–	0.29	–	–	–	–	rat anti-human MCAM monoclonal antibody clone 2107.4.10 (antibody, V domains shown, Rat hybridoma antibody) VH: QVQLKESGPGLVQSSQTLSLTCTVSGFSLTSNGVSWVRQPPGKGLEWIAAISSGGSTYYNSAFKSRLSISRNTSKSQVLLKMNSLQTEDTGMYFCARHRPFYFDYWGQGVMVTVSS VL: DIQVTQSPSLLSASVGDRVTLNCKGSQNIYKSLAWFRLKRGEAPKLLIYDANSLQTGIPSRFSGSGSGTDFTLTITSLQPEDVATYFCQQYYSGYTFGAGTKLELK
